Assay results: patent US6399759

Columns and labels:
Assay in all cases: cell-based or functional assay
[1] = biological target: Soli E1 (Solenopsis invicta)
[2] = biological target: T1, Soli E2 (Solenopsis invicta)
T1 sequence: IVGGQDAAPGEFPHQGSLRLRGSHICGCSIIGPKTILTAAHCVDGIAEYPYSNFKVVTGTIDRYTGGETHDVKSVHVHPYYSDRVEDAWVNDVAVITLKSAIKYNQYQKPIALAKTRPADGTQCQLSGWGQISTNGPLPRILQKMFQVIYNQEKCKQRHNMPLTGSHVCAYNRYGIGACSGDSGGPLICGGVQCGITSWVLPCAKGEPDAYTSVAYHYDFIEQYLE

[3] = biological target: Soli C1 (Solenopsis invicta)
Soli C1 (Solenopsis invicta), sequence (Q7SIG2 other isoform, or with tags, fused parts or gaps): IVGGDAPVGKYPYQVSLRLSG

[4] = biological target: Soli C2 (Solenopsis invicta)
Soli C2 (Solenopsis invicta), sequence (main, as listed by the source): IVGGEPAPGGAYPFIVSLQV

Soli E1 (Solenopsis invicta), sequence (main, as listed by the source): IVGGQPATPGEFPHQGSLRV

IC50 [1]: 4.22 nM
IC50 [2]: 5.58 nM
IC50 [3]: 37 nM
IC50 [4]: 1.41 nM
B1: Soy Bean Trypsin Inhibitor I-S (protein, soybean, UniProt P01070 25-205, looked up)
chain: DFVLDNEGNPLENGGTYYILSDITAFGGIRAAPTGNERCPLTVVQSRNELDKGIGTIISSPYRIRFIAEGHPLSLKFDSFAVIMLCVGIPTEWSVVEDLPEGPAVKIGENKDAMDGWFRLERVSDDEFNNYKLVFCPQQAEDDKCGDIGISIDHDDGTRRLVVSKNKPLVVQFQKLDKESL
